{"source": "patent US20240209086A1", "about": "(PETMEDIX, published 2024)", "binders": {"B1": {"name": "PMX172VH/PMX263VH/PMX172VL (bispecific antibody, V domains shown)", "VH 1": "EVQLVESGGDLVKPGGSLRLSCVASGFTFSSYHMSWVRQAPGKGLQWVAYSNSGGSRTSYADAVKGRFTISRDNAKNTLYLQMNSLRAEDTAVYYCASEGGGGRYGYKDYGMDYWGHGTSLFVSS", "VH 2": "EVQLVESGGDLVKPGGSLRLSCVASGFTFSRYYMNWVRQAPGKGLQWVAYINSGGSSTSYADAVKGRFTISRDNAKNTLYLQMNSLRADDTAVYYCTSFDYWGQGTLVTVSS", "VL": "SYVLTQLPSKNVTLKQPAHITCGGDNIGSKSVHWYQQKLGQAPVLIIYYDSSRPTGIPERFSGANSGNTATLTISGALAEDEADYYCQVWDSSAKAWVFGEGTQLTVL"}, "B2": {"name": "PMX172VH/PMX273VH/PMX172VL (bispecific antibody, V domains shown)", "VH 1": "B1 VH 1", "VH 2": "EMQLVESGGDLVKPGGSLRLSCVASGFTFSRYHMSWVRQAPGKGLQWVAYIDSDGSPTNYADAVKGRFTISRDNAKNTLYLQMNSLRAEDTAVYYCTTYDQWGQGTLVTVSS", "VL": "B1 VL"}, "B3": {"name": "PMX172VH/PMX239VH/PMX172VL (bispecific antibody, V domains shown)", "VH 1": "B1 VH 1", "VH 2": "B1 VH 2 with Y50F, N52T, A61G, D89E", "VL": "B1 VL"}, "B4": {"name": "PMX172VH/PMX272VH/PMX172VL (bispecific antibody, V domains shown)", "VH 1": "B1 VH 1", "VH 2": "B1 VH 2 with N52D, G54D", "VL": "B1 VL"}, "B5": {"name": "PMX172VH/PMX264VH/PMX172VL (bispecific antibody, V domains shown)", "VH 1": "B1 VH 1", "VH 2": "B1 VH 2 with Y33H, N35S, Y50F, S53T, G55R, S56M, S59N, D89E, F99L", "VL": "B1 VL"}, "B6": {"name": "PMX187 in bispecific format (canine CD3 arm PMX187 x Rituximab arm, human IgG4PE knob-in-hole) (bispecific antibody)", "heavy 1": "EVQLVESGGDLVKPGGSLRLSCVASGFTFSSYHMSWVRQAPGKGLQWVASINSGGSRTSYVDAVKGRFTISRDNAKNTLYLQMNSLRAEDTAVYYCASGRTGPKLGLGDYGMDSWGHGTSLFVSSASTKGPSVFPLAPCSRSTSESTAALGCLVKDYFPEPVTVSWNSGALTSGVHTFPAVLQSSGLYSLSSVVTVPSSSLGTKTYTCNVDHKPSNTKVDKRVESKYGPPCPPCPAPEFEGGPSVFLFPPKPKDTLMISRTPEVTCVVVDVSQEDPEVQFNWYVDGVEVHNAKTKPREEQFNSTYRVVSVLTVLHQDWLNGKEYKCKVSNKGLPSSIEKTISKAKGQPREPQVYTLPPSQCEMTKNQVSLSCAVKGFYPSDIAVEWESNGQPENNYKTTPPVLDSDGSFFLVSRLTVDKSRWQEGNVFSCSVMHEALHNRFTQKSLSLSLGK", "light 1": "SYVLTQLPSKNVTLKQPAHITCGGDNIGSKSVHWYQQKLGQAPVLIIYYDSSRPTGIPERFSGANSGNTATLTISGALAEDEADYYCQVWDSSAKAWVFGAGTQLTVLRTVAAPSVFIFPPSDEQLKSGTASVVCLLNNFYPREAKVQWKVDNALQSGNSQESVTEQDSKDSTYSLSSTLTLSKADYEKHKVYACEVTHQGLSSPVTKSFNRGEC", "heavy 2": "not shown", "light 2": "QIVLSQSPAILSASPGEKVTMTCRASSSVSYIHWFQQKPGSSPKPWIYATSNLASGVPVRFSGSGSGTSYSLTISRVEAEDAATYYCQQWTSNPPTFGGGTKLEIKRTVAAPSVFIFPPSDEQLKSGTASVVCLLNNFYPREAKVQWKVDNALQSGNSQESVTEQDSKDSTYSLSSTLTLSKADYEKHKVYACEVTHQGLSSPVTKSFNRGEC"}, "B7": {"name": "PMX188 in bispecific format (canine CD3 arm PMX188 x Rituximab arm, human IgG4PE knob-in-hole) (bispecific antibody)", "heavy 1": "B6 heavy 1 with N77K", "light 1": "B6 light 1 with V44I, A101E", "heavy 2": "not shown", "light 2": "B6 light 2"}, "B8": {"name": "PMX172VH/PMX262VH/PMX172VL (bispecific antibody, V domains shown)", "VH 1": "B1 VH 1", "VH 2": "B1 VH 2 with F27I, S57P, S59T, D89E", "VL": "B1 VL"}, "B9": {"name": "PMX172VH/PMX229VH/PMX172VL (bispecific antibody, V domains shown)", "VH 1": "B1 VH 1", "VH 2": "EVQLVESGGDLVKPGGSLRLSCVASGITFSRYHMSWVRQAPGKGLQWVAFINTGRSSTNYADAVAGRFTISRDNAKNTLYLQMNGLTVEDTAVYYCSTLDYWGQGTLVTVSS", "VL": "B1 VL"}, "B10": {"name": "PMX172VH/PMX233VH/PMX172VL (bispecific antibody, V domains shown)", "VH 1": "B1 VH 1", "VH 2": "B2 VH 2 with H33Y, S35N, D54G, T91A, V93I, Y99F, Q101F", "VL": "B1 VL"}, "B11": {"name": "PMX172VH/PMX234VH/PMX172VL (bispecific antibody, V domains shown)", "VH 1": "B1 VH 1", "VH 2": "B1 VH 2 with V2L, M34L, Y50F, N52T, S59N, D89E, Y101S", "VL": "B1 VL"}, "B12": {"name": "PMX172VH/PMX236VH/PMX172VL (bispecific antibody, V domains shown)", "VH 1": "B1 VH 1", "VH 2": "B1 VH 2 with F27L, N52D, S57P, S59N, D89E, T97S", "VL": "B1 VL"}, "B13": {"name": "PMX172VH/PMX235VH/PMX172VL (bispecific antibody, V domains shown)", "VH 1": "B1 VH 1", "VH 2": "B1 VH 2 with F27I, S53T, G55E, S59I, A61S, D89E, S98T, F99L, D100E", "VL": "B1 VL"}, "B14": {"name": "PMX172VH/PMX230VH/PMX172VL (bispecific antibody, V domains shown)", "VH 1": "B1 VH 1", "VH 2": "B1 VH 2 with Q3H, F27I, S30N, A40T, N52D, S57P, S59T, D89E", "VL": "B1 VL"}, "B15": {"name": "PMX172VH/PMX240VH/PMX172VL (bispecific antibody, V domains shown)", "VH 1": "B1 VH 1", "VH 2": "B1 VH 2 with F27L, Y33H, N35S, Y50F, G55R, S57D, S59T, D89E, S98T", "VL": "B1 VL"}, "B16": {"name": "PMX172VH/PMX268VH/PMX172VL (bispecific antibody, V domains shown)", "VH 1": "B1 VH 1", "VH 2": "EVQLVESGGDLMKPGGSLRLSCVASGITFSGYHMSWVRQAPGKGLQWVAFINSGRKNTAYADAVKGRFTISRDNAKNTLYLQMNSLRAEDTAIYYCTTLEFWGQGTLVTVSS", "VL": "B1 VL"}}, "note": "Numbering of substitutions follows the chain as printed.", "data": [{"biological_target": "T1, canine CD20 on cells (HEK293, MDCK II, CLBL-1 or native B cells) (canine, UniProt Q3C2E2 1-297)", "T1 chain": "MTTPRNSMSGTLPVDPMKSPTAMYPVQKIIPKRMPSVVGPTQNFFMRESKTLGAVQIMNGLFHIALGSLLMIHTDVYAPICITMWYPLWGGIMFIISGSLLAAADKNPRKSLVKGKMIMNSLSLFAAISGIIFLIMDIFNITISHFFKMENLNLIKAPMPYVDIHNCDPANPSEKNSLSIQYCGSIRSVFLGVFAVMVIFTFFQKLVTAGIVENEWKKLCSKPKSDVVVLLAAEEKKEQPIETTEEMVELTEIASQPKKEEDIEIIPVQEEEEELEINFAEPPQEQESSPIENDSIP", "experiment": "cell-based or functional assay", "units": {"EC50 (nM), bispecific killing (FIG. 13E)": "nM"}, "values": [{"binder": "B1", "EC50 (nM), bispecific killing (FIG. 13E)": 15.7}, {"binder": "B2", "EC50 (nM), bispecific killing (FIG. 13E)": 9.63}, {"binder": "B3", "EC50 (nM), bispecific killing (FIG. 13E)": 2.59}, {"binder": "B4", "EC50 (nM), bispecific killing (FIG. 13E)": 5.87}, {"binder": "B5", "EC50 (nM), bispecific killing (FIG. 13E)": 2.88}]}, {"biological_target": "T2, canine CD3εδ-Fc (heterodimer of canine CD3ε-hIgG4PE-knob and canine CD3δ-hIgG4PE-hole) (canine)", "T2 construct": "also called CD3εδ-Fc fusion protein; copies: 1 + 1", "T2 sequence (chain, as listed by the source mutant limits assumed)": "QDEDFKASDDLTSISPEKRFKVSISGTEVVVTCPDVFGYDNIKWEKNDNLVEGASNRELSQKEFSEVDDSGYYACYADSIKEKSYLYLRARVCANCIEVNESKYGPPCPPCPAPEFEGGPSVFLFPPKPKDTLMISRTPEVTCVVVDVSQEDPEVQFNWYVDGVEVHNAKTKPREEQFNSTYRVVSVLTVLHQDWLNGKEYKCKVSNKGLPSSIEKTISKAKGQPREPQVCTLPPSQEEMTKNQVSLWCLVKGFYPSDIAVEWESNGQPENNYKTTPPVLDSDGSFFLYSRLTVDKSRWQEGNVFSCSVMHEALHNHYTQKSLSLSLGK", "experiment": "SPR (Biacore 8K), CD3εδ-Fc amine-coupled to CM5 chip, multi-cycle kinetics, antibody 600-7.4 nM", "experimental": "Binding affinity of shortlisted candidates, described in Example 3, were assessed using Biacore 8K (Cytiva). Briefly, a CM5 Sensor Chip (Cytiva) was docked onto a Biacore 8K, equilibrated for 30′ at RT and then Running Buffer (10 mM HEPES pH6 150 mM NaCl 3 mM EDTA and 0.005% Tween20) was applied to the SPR chip surface. Canine CD3εδ-Fc was diluted into 10 mM acetate buffer pH4.5 and immobilised using standard amine coupling reaction. Antibodies dilutions were prepared by diluting the shortlisted candidates from 600 nM to 7.4 nM (5 concentrations with 1:3 dilutions) in running buffer and kinetics was assessed using multi-cycle kinetics method (120 sec association-300 sec dissociation). Kinetics and/or Affinity quantification was performed using Biacore Insight following standard analyses methods.", "units": {"Kd": "nM"}, "values": [{"binder": "B6", "Kd": 106}, {"binder": "B7", "Kd": 292}]}, {"biological_target": "T1, canine CD20 on cells (HEK293, MDCK II, …)", "experiment": "cell-based or functional assay", "remark": "another data set of the same source", "units": {"EC50 (nM), bispecific killing (FIG. 15)": "nM"}, "values": [{"binder": "B8", "EC50 (nM), bispecific killing (FIG. 15)": 0.129}, {"binder": "B9", "EC50 (nM), bispecific killing (FIG. 15)": 1.02}, {"binder": "B10", "EC50 (nM), bispecific killing (FIG. 15)": 0.188}, {"binder": "B11", "EC50 (nM), bispecific killing (FIG. 15)": 0.412}, {"binder": "B12", "EC50 (nM), bispecific killing (FIG. 15)": 0.153}, {"binder": "B13", "EC50 (nM), bispecific killing (FIG. 15)": 0.445}, {"binder": "B5", "EC50 (nM), bispecific killing (FIG. 15)": 0.361}, {"binder": "B14", "EC50 (nM), bispecific killing (FIG. 15)": 0.121}, {"binder": "B15", "EC50 (nM), bispecific killing (FIG. 15)": 0.341}]}, {"biological_target": "T1, canine CD20 on cells (HEK293, MDCK II, …)", "experiment": "cell-based or functional assay", "remark": "another data set of the same source", "units": {"EC50 (nM), endogenous B cell depletion in PBMC (FIG. 16A)": "nM"}, "values": [{"binder": "B16", "EC50 (nM), endogenous B cell depletion in PBMC (FIG. 16A)": 0.764}, {"binder": "B8", "EC50 (nM), endogenous B cell depletion in PBMC (FIG. 16A)": 0.247}, {"binder": "B10", "EC50 (nM), endogenous B cell depletion in PBMC (FIG. 16A)": 0.307}, {"binder": "B12", "EC50 (nM), endogenous B cell depletion in PBMC (FIG. 16A)": 0.075}, {"binder": "B5", "EC50 (nM), endogenous B cell depletion in PBMC (FIG. 16A)": 0.828}, {"binder": "B14", "EC50 (nM), endogenous B cell depletion in PBMC (FIG. 16A)": 0.183}]}, {"biological_target": "canine CD3 on canine T cells (canine PBMC) (canine, UniProt P27597 22-202)", "sequence (P27597 22-202 limits assumed, chain 1 of 3)": "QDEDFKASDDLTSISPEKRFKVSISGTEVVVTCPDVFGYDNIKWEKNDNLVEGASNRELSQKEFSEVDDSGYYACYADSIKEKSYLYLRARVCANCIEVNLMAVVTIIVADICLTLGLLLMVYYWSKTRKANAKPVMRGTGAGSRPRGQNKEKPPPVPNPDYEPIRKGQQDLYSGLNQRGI", "sequence (chain, as listed by the source limits assumed, chain 2 of 3)": "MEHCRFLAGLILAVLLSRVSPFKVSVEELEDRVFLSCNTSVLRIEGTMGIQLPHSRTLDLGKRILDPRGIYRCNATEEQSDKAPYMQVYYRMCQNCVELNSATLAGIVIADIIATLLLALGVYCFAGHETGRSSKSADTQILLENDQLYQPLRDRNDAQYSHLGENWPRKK", "sequence (chain, as listed by the source limits assumed, chain 3 of 3)": "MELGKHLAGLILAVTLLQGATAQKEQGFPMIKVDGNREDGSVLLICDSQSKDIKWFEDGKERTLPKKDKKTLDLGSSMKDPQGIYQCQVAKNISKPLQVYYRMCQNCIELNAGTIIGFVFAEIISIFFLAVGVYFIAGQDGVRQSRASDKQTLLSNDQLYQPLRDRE", "experiment": "cell-based or functional assay", "units": {"EC50 (M) of killing potency, bispecific killing of hCD20+GFP MDCK II cells by canine PBMC": "M"}, "values": [{"binder": "B6", "EC50 (M) of killing potency, bispecific killing of hCD20+GFP MDCK II cells by canine PBMC": "1.14e-08"}, {"binder": "B7", "EC50 (M) of killing potency, bispecific killing of hCD20+GFP MDCK II cells by canine PBMC": "8.23e-09"}]}]}
